Reference: patent US12558435B2, “Transient inhibition of p53 in gene therapy” (Ospedale San Raffaele S.R.L., priority 2018, dated 2026)

B1: E4orf6/7: adenoviral protein from adenovirus serotype 5 E4 gene (SEQ ID No. 2), delivered as mRNA (protein)
chain: MTTSGVPFGMTLRPTRSRLSRRTPYSRDRLPPFETETRATILEDHPLLPECNTLTMHNAWTSPSPPVKQPQVGQQPVAQQLDSDMNLSELPGEFINITDERLARQETVWNITPKNMSVTHDMMLFKASRGERTVYSVCWEGGGRLNTRVL
modifications: delivered as mRNA; example amino acid sequence of Ad5-E4orf6/7
B2: GSE56: p53 dominant negative peptide (SEQ ID No. 9), transiently overexpressed from electroporated mRNA (protein)
chain: MDGWCPGRDRRTEEENFRKKEEHCPELPPGSAKRALPTSTSSSPQQKKKPLDGEYFTLKIRGRERFEMFRELNEALELKDARAAEESGDSRAHSSYPKIVS
modifications: amino acid sequence of GSE56

Assays:
[1] = tested on: APOBEC3H; experiment: TaqMan assay of APOBEC3H gene expression; assay type: cell-based, human; details: 24 hours post-editing; FIG. 16G
Description: (§1) For gene expression analyses, total RNA was extracted using the RNeasy Plus Micro Kit (QIAGEN). cDNA was synthetized with SuperScript VILO IV cDNA Synthesis Kit (Invitrogen) and used for Q-PCR in a Viia7 Real-time PCR thermal cycler using TaqMan Gene Expression Assays (Applied Biosystems) mapping to CDKN1A, RPS27L, PHLDA3, APOBEC3H, and HPRT as normalizer. The relative expression of each gene was first normalized to HPRT expression and then represented as fold change relative to the mock-treated sample.

[2] = tested on: CDK2; experiment: TaqMan assay of CDK2 gene expression; assay type: cell-based, human; details: 24 hours post-editing; FIG. 16A-B
[3] = tested on: CDKN1A; experiment: TaqMan assay of CDKN1A gene expression; assay type: cell-based, human
Description: as §1

[4] = tested on: human CD34+ cells; experiment: Culture (subpopulation) composition of edited CD34+ cells by flow cytometry; assay type: cell-based
Description: For immunophenotypic analyses (performed on FACSCanto II; BD Pharmingen), we used the antibodies listed below. Single stained and Fluorescence Minus One stained cells were used as controls. LIVE/DEAD Fixable Dead Cell Stain Kit (Thermo Fisher), 7-aminoactinomycin (Sigma Aldrich), were included in the sample preparation for flow cytometry according to the manufacturer's instructions to exclude dead cells from the analysis. Cell sorting was performed using MoFlo XDP Cell Sorter (Beckman Coulter) or FACSAria Fusion (BD Biosciences).

[5] = tested on: human primary T cells; experiment: Gene editing of human primary T cells; assay type: cell-based; details: 20 days after treatment; bulk CD3+, CD4 and CD8 subpopulations; FIG. 9B
Description: Finally, we tested the delivery of the E4orf6/7 mRNA together with the Cas9 ribonucleoprotein (RNP) into human primary T cells (peripheral blood derived total CD3+ cells) before AAV6 transduction for the delivery of the donor DNA template (FIG. 9A).

[6] = tested on: HDR-edited human cells in NSG mice; experiment: Barcoding-based clonal tracking of edited cells in transplanted NSG mice; assay type: in vivo; details: AAVS1; FIG. 12E
Description: The barcoded AAV6 donor template targeting the AAVS1 locus was obtained by subcloning the degenerated sequence into the previously reported AAVS1 AAV6 transfer vector plasmid downstream of the polyadenylation sequence. Briefly, a ssODN embedding the random sequence flanked by the unique cloning restriction sites (Bsu36l and Sphl) was obtained from Sigma Aldrich. The degenerated region was designed to avoid any undesired cutting by cloning restriction enzymes. To generate the complementary strand, 50 pmol of the ssODN were amplified with 10 cycles of PCR with Easy-A High-Fidelity enzyme (Agilent Technologies) using the appropriate forward and reverse primers according to the manufacturer's instructions. The amplified product was purified with MinElute PCR Purification kit (QIAGEN), digested with the restriction enzymes and checked by capillary electrophoresis. 2 μg of the Bsu36l/Sphl-digested AAVS1 HDR donor template were ligated with the digested insert (molar ratio 1:7) using T4 DNA Ligase (NEB) by scaling up the manufacturer's protocol. […]
PCR amplicons for each individual sample were generated by one-step PCR using Taq G2 Hot Start Polymerase (Promega). […] PCR library amplicons were separately purified using MinElute PCR Purification kit (QIAGEN) and quality was assessed by Agilent Tapestation (Agilent Technologies). […]

[7] = tested on: human CD34+ cells; experiment: Cell growth curve of edited CD34+ cells; assay type: cell-based
[8] = tested on: p53-target genes (CDKN1A, PHLDA3, RPS27L, APOBEC3H); experiment: TaqMan expression of p53-target genes in edited CD34+ cells; assay type: cell-based, human; details: 24 hrs after electroporation; FIG. 3B
Description: as §1

[9] = tested on: human CD34+ cells transplanted into NSG mice; experiment: Xenotransplantation of edited human CD34+ cells in NSG mice; assay type: in vivo; details: limit cells dose T0eq=1×10^5/mouse; FIG. 19A

| Molecule | APOBEC3H expression [1] | CDK2 expression [2] | CDKN1A expression compared to the standard ([3]; 12 hours post-editing, FIG. 16F) | CD90+ fraction in culture composition ([4]; 96 hours, FIG. 14E) | culture composition ([4]; FIG. 10C) | increase in the percentage of GFP+ cells compared to standard [5] | number of dominant clones in haematopoietic organs, vs standard [6] | reduction of the amplitude of p21 (CDKN1A) activation compared to RNP+AAV6 ([3]; 24 hours post-editing, FIG. 16E) | expansion of treated HSPC ([7]; AAVS1 edited cells, FIG. 3D) | cell growth compared to standard RNP+AAV6 ([7]; days post-editing, FIG. 14B) | amplitude of the p53-dependent transcriptional response (downstream target genes) [8] | engraftment of treated cells compared to standard protocol [9] | relative composition of the hematopoietic populations ([4]; 3 days post editing, vs untreated controls, FIG. 3E) |
| --- | --- | --- | --- | --- | --- | --- | --- | --- | --- | --- | --- | --- | --- |
| B1 | significantly down-regulated | significantly up-regulated | about 2 fold | significant skewing | without any skew in the culture composition | 1.5 fold |  |  |  |  |  |  |  |
| B2 | significantly down-regulated | remained always at basal level |  |  |  |  | 6.5 fold | about 3 fold | higher expansion | about 2 fold | reduce the amplitude of the p53-dependent transcriptional response | 5-6 fold | no change in relative composition |
